The test system of assay [1] is HepG2 cells. Description: Fate of EGFR after EGF binding in control and MLKL knocked-down HepG2 cells (immunocytochemistry). It counts as cell-based, human. As to conditions: 2 hours after ligand binding; for cellular levels of the EGFR: HepG2 cells after EGF application; for difference in EGFR between cells expressing MLKL and cells deficient of it: control vs MLKL knocked-down HepG2 cells. How it is done: (§1) Bafilomycin A1 from Santa Cruz Biotechnology was applied to the cells at 100 nM. Chloroquine was applied at 25 μM, 4-hydroxytamoxifen was applied at 1 μM, and ionomycin was applied at 1 μM, ultra pure LPS, applied at 1 μg/ml (all from Sigma). Human ECF from Biological industries, mouse EGF from ProSpec and human TNF from Ybdy were biotinylated using an EZ-Link biotinylation kit (Thermo Fisher Scientific) and then applied to the cells at 5 μg/ml or injected intravenously into mice at a dose of 10 μg/mouse. Bovine serum albumin (BSA), tagged with gold particles (BSA-gold, CMC Utrecht), was applied to the cells at an optical density of 2. To trigger necroptosis, TNF (1000 units/ml) was applied together with the bivalentIAP (inhibitor of apoptosis protein) antagonist BV6 and the caspase inhibitor z-VAD-fmk, both from WuXu App Tec, at concentrations of 1 μM and 20 μM respectively. IL-1β ELISA kit was from eBiosicne.
Prior to ligand treatment the cells were incubated for 12 hours in serum-free medium. Biotinylated EGF and TNF were applied to the cells for 30 minutes on ice in CO2-independent medium (Thermo Fisher Scientific), and this was followed by rinsing and rther incubation without those ligands at 37° C. For western blot analysis, cellular proteins were extracted at the indicated times in RIPA buffer (20 mM Tris-HCl pH 7.5, 150 mM NaCl, 1 mM EDTA, 1 mM EGTA, 1% NP-40, 0.5% sodium deoxycholate, 0.1% sodium dodecyl sulfate (SDS), protease and phosphatase inhibitors). For immunofluorescence microscopy, cells were fixed in 4% paraformaldehyde (PFA) in PBS and then stained with fluorescence-conjugated antibodies.
Immunostaining was performed as described previously [Yoon S. et al., Cell death and differentiation (2016) 23, 253-260]. Briefly, cells fixed with 4% PFA in PBS were permeabilized by incubation in methanol at −20° C. for 10 minutes, followed by incubation in blocking buffer (20% normal goat serum (NGS), 2% BSA, 0.3 M glycine and 0.1% Tween-20 in PBS, pH 7.2). Following incubation with the indicated antibodies, images were obtained using an Olympus IX 81 confocal microscope (Olympus Imaging), with a UPLSAPO 60×1.35 NA oil objective and FluoView FV1000 software (Olympus Imaging). Images were processed using Imaris software from Bitplane.

Another assay concerns MEFs. The assay is described as follows: Exosome generation by MEFs, ionomycin treatment. It counts as cell-based, mouse. How it is done: as §1, with “To trigger necroptosis, TNF (1000 units/ml) was applied together with the bivalentIAP (inhibitor of apoptosis protein) antagonist BV6 and the caspase inhibitor z-VAD-fmk, both from WuXu App Tec, at concentrations of 1 μM and 20 μM respectively. IL-1β ELISA kit was from eBiosicne.” left out
(§2) In all experiments aimed at assessing the generation of exosomes by cultured cells, the FBS supplementing the growth medium was pre-depleted of bovine exosomes by centrifugation at […] for 18 hours. […] The stimuli whose effect on exosome generation was to be assessed were applied for the indicated times towards the end of this 12 hour period. […] Size spectra and amounts of the particles in the exosome preparations were determined by Nanoparticle Tracking Analysis using the NanoSight NS300 device (Malvern Instruments) according to the manufacturer's instructions.

Assay [2] concerns HepG2 cells. The assay is described as follows: Exosome generation by HepG2 cells, ionomycin treatment. The format is cell-based, human. How it is done: as §1, with “To trigger necroptosis, TNF (1000 units/ml) was applied together with the bivalentIAP (inhibitor of apoptosis protein) antagonist BV6 and the caspase inhibitor z-VAD-fmk, both from WuXu App Tec, at concentrations of 1 μM and 20 μM respectively. IL-1β ELISA kit was from eBiosicne.” left out
as §2

The next assay has as its system HT29 cells. Description: Exosome generation by HT29 cells after triggering necroptosis (Nanoparticle Tracking Analysis, western blot). The format is cell-based, human. To be noted: HT-29 cells treated with TBZ. As for the experimental part:
as §1, with “To trigger necroptosis, TNF (1000 units/ml) was applied together with the bivalentIAP (inhibitor of apoptosis protein) antagonist BV6 and the caspase inhibitor z-VAD-fmk, both from WuXu App Tec, at concentrations of 1 μM and 20 μM respectively. IL-1β ELISA kit was from eBiosicne.” left out
as §2
Cells and liver samples were extracted in RIPA and in 1% SDS, respectively. […] Band intensity was quantified using the ImageJ software.

The test system of assay [3] is MLKL knocked-down HT-29 cells. To be noted: cited from earlier work; for death in HT29 cells on inducible expression: Yoon et al. (2016); for induction of necroptosis/death by TBZ: as previously reported (Sun et al. 2012; Quarato et al. 2016).
In assay [4] the test system is MLKL knocked-down HT-29 cells. Description: Yield of exosomes in MLKL knocked-down HT-29 cells inducibly expressing MLKL mutants. To be noted: inducible expression, compared to wild-type MLKL. The format is cell-based, human. An excerpt:
(§3) The various mutants of MLKL were expressed inducibly in HT-29 cells in which the endogenous MLKL mRNA was constitutively knocked down. Expression was achieved by lentiviral infection with the GEV16/pF5x UAS system as described previously [Dunning C J et al. The EMBO Journal (2007) 26, 3227-3237, doi:10.1038/sj.emboj.7601748].
In all experiments aimed at assessing the generation of exosomes by cultured cells, the FBS supplementing the growth medium was pre-depleted of bovine exosomes by centrifugation at […] for 18 hours. Except where otherwise indicated, the exosomes were collected after 12 hours of incubation. The stimuli whose effect on exosome generation was to be assessed were applied for the indicated times towards the end of this 12 hour period. Unless otherwise indicated, TBZ was applied for 4 hours. For recovery of exosomes from the mice, mouse blood samples were collected in MiniCollect®TUBEs (Greiner Bio-One) and centrifuged at 3000 rpm for 15 minutes. Mouse plasma and cell-growth media were passed through 0.2 μm filters and centrifuged at […] for 90 minutes, after which the pellet was suspended in phosphate-buffered saline (PBS) and re-sedimented by centrifugation as above. Size spectra and amounts of the particles in the exosome preparations were determined by Nanoparticle Tracking Analysis using the NanoSight NS300 device (Malvern Instruments) according to the manufacturer's instructions.

The test system of assay [5] is HepG2 cells. Description: Cell death of HepG2 cells inducibly expressing MLKL mutants. The format is cell-based, human. As to conditions: inducible expression in HepG2 cells.
In assay [6] the test system is MLKL knocked-down HepG2 cells. Description: Levels of EGF and EGFR in MLKL knocked-down HepG2 cells inducibly expressing MLKL mutants (western blot). The format is cell-based, human. As to conditions: EGF applied 7 hours after induction.
Assay [7] relates to MLKL knocked-down HT-29 cells. Description: Cell death in MLKL knocked-down HT-29 cells inducibly expressing MLKL mutants. The format is cell-based, human. As to conditions: induced expression of the mutant.
Excerpt: as §3
Cell death was quantified using the Cytotoxicity Detection Kit (Roche Applied Science) to determine the concentration of lactic dehydrogenase (LDH) in the mouse cell media or plasma.

Substitutions are numbered along the chain they refer to. Names may count otherwise. “Also recorded” adds a separate entry of the source.

The values that follow come from patent US20190195891A1, “DIAGNOSTIC AND THERAPEUTIC USES OF EXOSOMES” (Yeda Research and Development Co. Ltd., priority 2016, published 2019).

With `CO/C1=C\C(C)=C\[C@@H](C)[C@@H](O)[C@@H](C)C/C(C)=C/C=C/[C@H](OC)[C@@H]([C@@H](C)[C@@H](O)[C@H](C)[C@@]2(O)C[C@@H](O)[C@H](C)[C@@H](C(C)C)O2)OC1=O` [bafilomycin A1], in the assay on HepG2 cells [1], the “cellular levels of the EGFR” value was “withhold the decrease”; the “difference in EGFR between cells expressing MLKL and cells deficient of it” value (“difference” below) was “obliterate the difference”. In the assay with HepG2 cells [1] (listed as Baf A1), the “difference” value is reported as “equal accumulation of EGFR”.
On to `CCN(CC)CCCC(C)Nc1ccnc2cc(Cl)ccc12` (stereo not shown) [chloroquine], for which, in the assay on HepG2 cells [1], the “cellular levels of the EGFR” value is recorded as “withhold the decrease”; the “difference” value is given as “obliterate the difference”. In addition, in the assay with HepG2 cells [1] (listed as CQ), the “difference” value is “equal accumulation of EGFR”.
For the molecule `C[C@H](CCC(=O)O)C[C@H](C)C[C@H](C)C(=O)/C=C(\O)[C@H](C)C[C@H](C)C/C=C/[C@@H](C)[C@@H](O)[C@@H](C)[C@@H](O)C[C@@H]1CC[C@@](C)([C@H]2CC[C@@](C)([C@@H](C)O)O2)O1` [ionomycin], the generation of exosomes result is on record as “enhanced generation of exosomes” in the assay with MEFs (MEFs), “no such enhancement” in the assay on MEFs (MEFs deficient of MLKL), “enhanced generation of exosomes” with HepG2 cells [2] (HepG2 cells) and “no such enhancement” with HepG2 cells [2] (HepG2 cells deficient of MLKL).
With `CN1C(=O)C(Cc2c[nH]c3ccccc23)NC1=S` (stereo not shown) [necrostatin-1], the “effect on enhancement of exosome generation by TBZ” value in the assay with HT29 cells is recorded as “block this enhancement; also recorded: reversal”.

B1: T357E/S358D: MLKL with phospho-mimetic mutations of the residues that are the targets of phosphorylation by RIPK3 (protein, UniProt Q8NB16 1-471, looked up, variant T357E S358D)
Mixed lineage kinase …: MENLKHIITLGQVIHKRCEEMKYCKKQCRRLGHRVLGLIKPLEMLQDQGKRSVPSEKLTTAMNRFKAALEEANGEIEKFSNRSNICRFLTASQDKILFKDVNRKLSDVWKELSLLLQVEQRMPVSPISQGASWAQEDQQDADEDRRAFQMLRRDNEKIEASLRRLEINMKEIKETLRQYLPPKCMQEIPQEQIKEIKKEQLSGSPWILLRENEVSTLYKGEYHRAPVAIKVFKKLQAGSIAIVRQTFNKEIKTMKKFESPNILRIFGICIDETVTPPQFSIVMEYCELGTLRELLDREKDLTLGKRMVLVLGAARGLYRLHHSEAPELHGKIRSSNFLVTQGYQVKLAGFELRKTQEDMSLGTTREKTDRVKSTAYLSPQELEDVFYQYDVKSEIYSFGIVLWEIATGDIPFQGCNSEKIRKLVAVKRQQEPLGEDCPSELREIIDECRAHDPSVRPSVDEILKKLSTFSK
Regarding B1, the “death in HT29 cells on inducible expression” value in assay [3] is reported as “triggers death”. The generation of exosomes entry in [4] was “levels higher than in cells expressing the wild type protein”. Besides, in the assay with HepG2 cells [5], the “death of HepG2 cells within the time of the test” value was “no death”. For the same molecule, the “intracellular degradation of EGF and EGFR following uptake” value in [6] was “facilitated”.

B2: K230M/Q356A: MLKL with mutations within the ATP-binding pocket imposing the conformational change attained after phosphorylation (protein, UniProt Q8NB16 1-471, looked up, variant K230M Q356A)
Mixed lineage kinase …: B1 Mixed lineage kinase … with K230M, Q356A, E357T, D358S
As to B2, the “death in HT29 cells on inducible expression” value in assay [3] is listed as “triggers death”. Further, the generation of exosomes entry in assay [4] is reported as “levels higher than in cells expressing the wild type protein”. The “death of HepG2 cells within the time of the test” value in the assay with HepG2 cells [5] was “about 1%”. Also, the “intracellular degradation of EGF and EGFR following uptake” value in assay [6] is recorded as “facilitated”.

B3: T357A/S358A: MLKL with the RIPK3 targeted residues replaced with alanine (protein, UniProt Q8NB16 1-471, looked up, variant T357A S358A)
Mixed lineage kinase …: B1 Mixed lineage kinase … with E357A, D358A
For B3, the “induction of necroptosis/death by TBZ” value in assay [3] is listed as “compromised”. Besides, in assay [4], the generation of exosomes result is “compromised”.

B4: 5A: MLKL in which Lys5, Lys16 Arg17, and Lys50 Arg51 were replaced with alanine (protein, UniProt Q8NB16 1-471, looked up, variant K5A K16A R17A K50A R51A)
Mixed lineage kinase …: B1 Mixed lineage kinase … with K5A, K16A, R17A, K50A, R51A, E357T, D358S
For B4, the “induction of necroptosis/death by TBZ” value in [3] was “arrest death induction”. Besides, the generation of exosomes result in assay [4] was “failed to generate exosomes”.

B5: MLKL deletion mutant corresponding to its 180 N-terminal amino acid coiled-coil region: MLKL deletion mutant, 180 N-terminal amino acids (protein, UniProt Q8NB16 1-180, looked up, fragment)
chain: MENLKHIITLGQVIHKRCEEMKYCKKQCRRLGHRVLGLIKPLEMLQDQGKRSVPSEKLTTAMNRFKAALEEANGEIEKFSNRSNICRFLTASQDKILFKDVNRKLSDVWKELSLLLQVEQRMPVSPISQGASWAQEDQQDADEDRRAFQMLRRDNEKIEASLRRLEINMKEIKETLRQYL
On to B5, for which, in assay [4], the generation of exosomes entry is “significantly lower”. In addition, in [7], the cell death entry is “triggers necrotic death of the cells”.
